Experimental data from the supplement of paper PMC9732359.
± gives the uncertainty stated by the source.

Assay: protein stability index of a GFP-peptide fusion (yeast GPS) (PSI 1-4); higher = more stable; sorted into four equal gates, so the index is relative within each strain
Method in brief: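 Mid-log yeast cultures in leucine-free medium, carrying a pooled plasmid library, were sorted into four equal gates by their GFP/Cherry fluorescence ratio. Each plasmid expressed Cherry along with GFP fused upstream of a tiled 17-residue yeast protein peptide. Plasmids recovered from each gate were PCR-amplified and Illumina-sequenced, with reads assigned to strains by barcodes. The protein stability index was obtained by summing each gate's read frequency weighted by its gate number.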

Sequence | protein stability index (san1∆) | protein stability index (doa10∆) | protein stability index (pdr5∆) | protein stability index (ubr1∆)
LLTLIVREYEQPDANKK [ISW2] | 3.09 ± 0.2 | – | – | –
IINKVLDYQETYVEELF [YJL039C/NUP192] | 2.76 ± 0.12 | 2.2 ± 0.1 | 2.87 ± 0.15 | 2.6 ± 0.075
SRNKALELNLSVLHSWV [YJL039C/NUP192] | 2.84 ± 0.08 | – | 2.5 ± 0.14 | 2.51 ± 0.24
TIHAKRKIVFRCSECIK [RPN4] | 2.15 ± 0.11 | 2.39 ± 0.056 | 2.73 ± 0.066 | 2.59 ± 0.056
KVAHTSYKRIYGEYPPT [PRE8] | 3.01 ± 0.085 | 3.02 ± 0.062 | 3.14 ± 0.068 | 3.09 ± 0.049
GASTVMKTKTINAQGEE [PRP8] | 3.2 ± 0.083 | 3.31 ± 0.11 | 3.06 ± 0.15 | 3.07 ± 0.07
LSQSRIKIKSLEYEISK [YIL149C/MLP2] | 2.37 ± 0.07 | 2.08 ± 0.051 | 2.68 ± 0.055 | 2.07 ± 0.041
KMIEKIEKMSTIVQLCK [YIL149C/MLP2] | 1.98 ± 0.17 | 2.65 ± 0.092 | 2.37 ± 0.067 | 2.36 ± 0.098
GWYHSHPGFGCWLSSVD [RPN11] | 2.35 ± 0.087 | 2.72 ± 0.12 | 3.09 ± 0.072 | 2.64 ± 0.12
PVPESAGKADTSIRLEG [SRB4] | 2.95 ± 0.055 | 2.96 ± 0.062 | 3.19 ± 0.079 | 3.06 ± 0.045
PALIRPGRIDRKILFEN [RPT2] | 2.12 ± 0.2 | – | 2.21 ± 0.16 | 2.58 ± 0.17
KSIENPTQTKGNDAKPA [YLR335W/NUP2] | 3.23 ± 0.046 | 3.12 ± 0.075 | 3.24 ± 0.058 | 2.94 ± 0.055
ASSLRFGNSLSNTVNAN [YDL088C/ASM4] | 2.65 ± 0.059 | 2.81 ± 0.068 | 2.78 ± 0.075 | 2.89 ± 0.074
KQTKLRKEKEKKPGKIA [SMB1] | 2.51 ± 0.29 | – | 3.36 ± 0.15 | –
TWIQQFKSTMLQVSEKD [ARP7] | 1.27 ± 0.14 | 1.89 ± 0.065 | 1.86 ± 0.066 | 1.73 ± 0.053
SLYQVDPSGSYFPWKAT [PRE8] | 2.65 ± 0.093 | 2.87 ± 0.1 | 2.66 ± 0.11 | 3.25 ± 0.099
KRLIAHDWLNALDGDLI [YCG1] | 2.6 ± 0.17 | 2.18 ± 0.17 | 2.9 ± 0.16 | 3.23 ± 0.081
VTVDADIDDILKKGEQK [ISW2] | 2.35 ± 0.084 | 2.85 ± 0.12 | 2.76 ± 0.07 | 2.72 ± 0.043
DCLDKLLNDECTESTRE [SNF2] | 3.48 ± 0.091 | 3.5 ± 0.14 | 3.4 ± 0.13 | 3.41 ± 0.17
LKRNRIRNARSIRAEAV [POP1] | – | 1.71 ± 0.15 | 2.44 ± 0.1 | 2.59 ± 0.13
LPTRGTLESLENLVVAD [COR1] | 2.84 ± 0.057 | 2.83 ± 0.059 | 3.04 ± 0.053 | 2.89 ± 0.042
DKQARKQRTKKEDKSEA [SNF2] | 3.25 ± 0.077 | 3.64 ± 0.14 | 3.54 ± 0.13 | 3.29 ± 0.11
NVGKPDQSIASGNTNGA [YOR098C/NUP1] | 2.83 ± 0.085 | 3 ± 0.2 | 2.09 ± 0.28 | 2.93 ± 0.1
NVRDDMKPSDNISTNTN [SSN2] | 2.88 ± 0.051 | 3.1 ± 0.045 | 2.94 ± 0.049 | 3.04 ± 0.053
FDKVIYHLHPTFANPNR [TAF14] | 1.43 ± 0.22 | 1.49 ± 0.091 | 1.44 ± 0.064 | 1.19 ± 0.057
NNSGNDNNNTTNNDSNN [MED2] | 3.133 ± 0.023 | 3.13 ± 0.035 | 3.27 ± 0.033 | 3.092 ± 0.03
LAPSKHQPITSEQKMKE [SIR4] | 2.61 ± 0.1 | 2.31 ± 0.077 | 2.37 ± 0.098 | 2.29 ± 0.24

Sequence | protein stability index (san1∆) | protein stability index (doa10∆) | protein stability index (pdr5∆) | protein stability index (ubr1∆)
NEGLVEYIDAEEEESIL [RPB2] | 3.24 ± 0.078 | 3.36 ± 0.081 | 3.46 ± 0.085 | 3.37 ± 0.087
TGMEPGKTSFFQALGVP [RPP0] | 3.23 ± 0.13 | 2.89 ± 0.13 | 3.2 ± 0.098 | 3.17 ± 0.073
FLKLVLSESPVDFEKFE [SIN4] | 2.66 ± 0.07 | 2.58 ± 0.047 | 2.69 ± 0.069 | 2.7 ± 0.067
FLKVKGLVKQHLDSFNY [RET1] | 2.78 ± 0.29 | 3.09 ± 0.17 | 3.18 ± 0.1 | 2.94 ± 0.19
WGMEPLEDYVPHQSPDA [RPB2] | 2.98 ± 0.081 | 2.85 ± 0.11 | 3.3 ± 0.13 | 2.98 ± 0.076
KDLKDDSIYTKPVKVAL [YJL039C/NUP192] | 2.73 ± 0.053 | 2.81 ± 0.049 | 2.98 ± 0.045 | 3.02 ± 0.04
KPQEIKDILVKTGITKK [PRE9] | 2.56 ± 0.22 | 3.39 ± 0.089 | 3.29 ± 0.086 | 3.15 ± 0.14
VTVEQLRSIYHQFHDIL [NSL1] | 1.31 ± 0.16 | 2.41 ± 0.11 | 1.9 ± 0.073 | 1.81 ± 0.066
EINSEDYDNKTKLIGVL [SRP68] | 3.25 ± 0.076 | 3.2 ± 0.15 | 3.04 ± 0.18 | 3.02 ± 0.12
TKKKRKPTEVNDSENNS [ITC1] | 3.16 ± 0.045 | 3.26 ± 0.063 | 3.21 ± 0.081 | 3.27 ± 0.054
EAVEIPVNSADGKEDVE [SME1] | 2.77 ± 0.04 | 2.29 ± 0.061 | 2.8 ± 0.056 | 2.67 ± 0.04
QNPLNKSQNTALPSTHK [SIR4] | 2.33 ± 0.058 | 2.62 ± 0.048 | 2.88 ± 0.049 | 2.76 ± 0.037
VNVEKFNVEYFAKEKLT [RPL6A] | 2.08 ± 0.069 | 1.84 ± 0.039 | 1.96 ± 0.044 | 2.37 ± 0.036
DAVKDFKLGKFNYVAVG [QCR2] | – | 3.2 ± 0.24 | 1.52 ± 0.14 | –
DQKPIEHIKEGSEIAIS [SWI3] | 2.87 ± 0.064 | 2.93 ± 0.058 | 3.21 ± 0.069 | 2.92 ± 0.04
NYFVDTDLKKIIKANQL [RET1] | 3.01 ± 0.044 | 2.88 ± 0.058 | 2.85 ± 0.066 | 2.53 ± 0.036
RAKSCGVDAMSVDDLKK [RPL1A] | 2.69 ± 0.075 | 2.54 ± 0.078 | 2.41 ± 0.078 | 2.48 ± 0.05
TMTYEEVAKRLVELMFI [FAS1] | 2.52 ± 0.084 | 1.79 ± 0.067 | 2.22 ± 0.071 | 2.14 ± 0.069
APIPKQLLQRIPNIPPN [GAL11] | 2.6 ± 0.07 | 2.69 ± 0.063 | 2.63 ± 0.066 | 2.54 ± 0.049
GNAVTVTEDGTVVTVVS [RPL22A] | 1.45 ± 0.11 | 1.38 ± 0.044 | 1.67 ± 0.078 | 1.84 ± 0.065
IKFFWNNTHVGRQFCNR [YLR018C/POM34] | 1.74 ± 0.27 | – | 1.68 ± 0.14 | 1.9 ± 0.1
VEWINPSRRERRREQTT [ISW2] | – | – | – | 3.39 ± 0.15
FNITDNGVRALFHSCTR [GRR1] | 1.09 ± 0.15 | 1.53 ± 0.11 | 2.52 ± 0.088 | 2.35 ± 0.054
TLQDFHLIFSNARIYNT [SNF2] | 1.63 ± 0.18 | 2.25 ± 0.081 | 2.17 ± 0.1 | 2.79 ± 0.073
RLLNTNVDGNIKIVYAL [RPS18A] | – | – | – | 3.27 ± 0.16
IEIMGILMGFTLKDNIV [RRI1] | 2.81 ± 0.12 | 2.46 ± 0.097 | 2.15 ± 0.076 | 2.55 ± 0.083
